According to publication PMC5333627:

What was measured:
CbpE-Jo (S. pneumoniae) = test: confocal fluorescence microscopy of live cells; live pneumococcal cells expressing CbpE-Jo or CbpE-In incubated with exogenous His-GFP-In or PBS, extensive washes; mean maximal GFP intensity of five frames, autofluorescence subtracted
His-Jo (S. pneumoniae) [1] = test: covalent complex formation seen by SDS-PAGE; Jo and In partners at 25 μM, pH 7, 20 °C, 60 min; proportion of complex normalised to 100%
His-Jo (S. pneumoniae) [2] = test: covalent complex formation seen by SDS-PAGE; Jo and In partners at 25 μM, pH 5, 20 °C, 60 min; proportion of complex normalised to 100%
His-Jo (S. pneumoniae) [3] = test: covalent complex formation seen by SDS-PAGE; Jo and In partners at 25 μM, pH 6, 20 °C, 60 min; proportion of complex normalised to 100%
His-Jo (S. pneumoniae) [4] = test: covalent complex formation seen by SDS-PAGE; 10 μM purified His-Jo and His-In, 50 mM Tris pH 8.0, 200 mM NaCl, 20 °C; 90 min; bands quantified with ImageJ
His-Jo (S. pneumoniae) [5] = test: covalent complex formation seen by SDS-PAGE; Jo and In partners at 25 μM, pH 8, 20 °C, 60 min; proportion of complex normalised to 100%
His-Jo (S. pneumoniae) [6] = test: covalent complex formation seen by SDS-PAGE; 10 μM purified His-Jo and His-In, 50 mM Tris pH 8.0, 200 mM NaCl, 20 °C; 180 min; bands quantified with ImageJ
His-Jo (S. pneumoniae) [7] = test: covalent complex formation seen by SDS-PAGE; His-Jo and In co-expressed in E. coli cytoplasm (pETDuet, IPTG 3 h at 37 °C); crude lysate on denaturing SDS-PAGE, Coomassie blue

His-GFP-In (domain or fragment) was tested, and the fluorescence signal of the cells (arbitrary units (AU)) (CbpE-Jo (S. pneumoniae)) was 550.
Work on His-In (domain or fragment) yielded a percent of complex reconstituted (His-Jo (S. pneumoniae) [1]) of 100%, a percent of complex reconstituted (His-Jo (S. pneumoniae) [2]) of 18% and a percent of complex reconstituted (His-Jo (S. pneumoniae) [3]) of 90%. The percent of complex reconstituted (His-Jo (S. pneumoniae) [4]) was 60%, the percent of complex reconstituted (His-Jo (S. pneumoniae) [5]) was 100% and the percent of complex reconstituted (His-Jo (S. pneumoniae) [6]) was 100%.
Work on In (domain or fragment) yielded a stoichiometry N (His-Jo (S. pneumoniae) [7]) of 1.
